Test results reported in publication PMC8184503 (iScience, 2021).
Primed or numbered codes have the meaning given here. Where no end group is shown, it is not given here. FITC′ = fluorescein isothiocyanate

T1: His-tagged β-cat (ARM domain, aa 134-668) (UniProt P35222 134-668)
T1 sequence (looked up): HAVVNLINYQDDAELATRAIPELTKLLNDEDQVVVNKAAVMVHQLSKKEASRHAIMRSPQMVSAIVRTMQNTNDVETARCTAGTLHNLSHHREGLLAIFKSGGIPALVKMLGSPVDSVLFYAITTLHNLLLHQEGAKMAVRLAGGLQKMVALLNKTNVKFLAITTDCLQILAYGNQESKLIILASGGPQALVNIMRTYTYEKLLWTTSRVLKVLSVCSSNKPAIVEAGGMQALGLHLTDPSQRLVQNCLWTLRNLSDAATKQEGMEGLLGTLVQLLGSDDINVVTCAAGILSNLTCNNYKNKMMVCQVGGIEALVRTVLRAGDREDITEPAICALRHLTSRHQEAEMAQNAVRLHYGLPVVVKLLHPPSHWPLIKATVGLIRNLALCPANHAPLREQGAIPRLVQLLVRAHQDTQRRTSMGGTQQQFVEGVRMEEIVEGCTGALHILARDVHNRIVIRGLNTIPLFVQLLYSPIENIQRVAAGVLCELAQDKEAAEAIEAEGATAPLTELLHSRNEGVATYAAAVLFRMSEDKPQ


Molecular target: T1, His-tagged β-cat (ARM domain, aa …)
Experiment: SPR

IC50 [µM] | binding result | Binder
0.029 | – | GGGDDLGANDELISFKDEGEQEEKSSENSSAERDLADVKSSLVNE-{FITC′} [C-terminal FITC-labeled TCF4 peptide (aa 7-51)]
– | binds | GST-tagged TCF4 N-terminal domain (aa 1-55) (domain or fragment, UniProt Q9NQB0 1-55, looked up) MPQLNGGGGDDLGANDELISFKDEGEQEEKSSENSSAERDLADVKSSLVNESETN
